One molecule from patent US20230242623A1 (GEORGIA TECH RESEARCH, published 2023) can be followed below.

This assay addresses T1, SARS-CoV-2 spike ectodomain protein (SARS-CoV-2, UniProt P0DTC2 14-1213).
T1 construct: extracellular domain
Kind of assay: BLI, immobilized spike ectodomain; avidity reported as 1/Kads.

B1: 3A7 (antibody, V domains shown)
VH: QVTLKESGPGILQPSQTLSLTCSFSGFSLSTSGMGVSWIRQPSGKGLEWLAHIYWDDDKRYNPSLKSRLTISKDTSSSQVFLKITSVDTVDTATYYCARRGPLITTDGTFDVWGAGTTVTVSS
VL: DIVMTQSRKFMSTSVGDRVSITCKASQDVGTSVAWYQQKPGQSPKLLIYWASTRHTGVPDRFTGSGSGTDFTLTINSVQSEDLADYFCQQYSSYPYTFGGGTKLEMK
notes: also called 3A7 clone
Molecule B1 had a Kd of about 0.01 nM.
